{"source": "patent US20050054024", "tested_on": "T1, 7-nitrobenz-2-oxa-1,3-diazole (NBD)-NH-Ser-Phe-Arg4-Lys-amide 2", "T1 sequence": "SFRRRRK", "data": [{"substance": "recombinant human protein kinase C γ", "values": [{"measurement": "Km (Fluorescence assay)", "value": 30, "unit": "µM"}, {"measurement": "Km (Radioactive assay)", "value": 5, "unit": "µM"}, {"measurement": "kcat (Fluorescence assay)", "value": 3.17, "unit": "s⁻¹"}, {"measurement": "kcat (Radioactive assay)", "value": 3.5, "unit": "s⁻¹"}, {"measurement": "kcat/Km (Fluorescence assay)", "value": 105000, "unit": "M⁻¹ s⁻¹"}, {"measurement": "kcat/Km (Radioactive assay)", "value": 700000, "unit": "M⁻¹ s⁻¹"}]}]}
